Values of other authors in paper PMC9539805.

Assays:
[1] = target: spike protein (SARS-CoV-2) (UniProt P0DTC2)
[2] = target: spike protein RBD (SARS-CoV-2) (UniProt P0DTC2)

In the case of CV-N (from UniProt P81180), the Kd [1] is given as 18.6 µM and the Kd [2] is given as 260 µM.
